In assay [1] the target is Sec61 channel with Sec61p S179P, in reconstituted proteoliposomes (S. cerevisiae | S. cerevisiae (endogenous in the yeast membranes)) (UniProt P32915).
For assay [2], the target named is Sec61 channel with Sec61p S179P/S353C, in reconstituted proteoliposomes (S. cerevisiae | S. cerevisiae (endogenous in the yeast membranes)) (UniProt P32915).
Assay [3] concerns the target Sec61 channel with Sec61p of sec61-302 (D168G, S179P, F263L, S353C), in reconstituted proteoliposomes (S. cerevisiae | S. cerevisiae (endogenous in the yeast membranes)) (UniProt P32915).
The target in assay [4] is Sec61 channel with Sec61p S353C, in reconstituted proteoliposomes (S. cerevisiae | S. cerevisiae (endogenous in the yeast membranes)) (UniProt P32915).
Assay [5] addresses Sec61 channel, wild type (Sec61p, Sbh1p, Sss1p), in reconstituted proteoliposomes (S. cerevisiae | S. cerevisiae (endogenous in the yeast membranes)) (UniProt P32915).
For assay [6], the target named is Sec61 channel with Sec61p of sec61-302 (D168G, S179P, F263L, S353C), in reconstituted proteoliposomes (S. cerevisiae | S. cerevisiae (endogenous in the yeast membranes)) (UniProt P32915). Briefly: flotation of proteoliposomes in a sucrose gradient; 20 eq of reconstituted proteoliposomes with 2 pmol 19S RP in 30 µl binding buffer (20 mM Hepes-KOH pH 7.2, 250 mM sucrose, 120 mM KOAc, 5 mM Mg(OAc)2, 5 mM ATP, 1 mM DTT), 20 min on ice then 10 min at RT; flotation 55,000 rpm, 4°C, 1 hr; 9 fractions, 19S RP detected by anti-FLAG blot.

Assay [7] has as its target Sec61 channel, wild type (Sec61p, Sbh1p, Sss1p), in reconstituted proteoliposomes (S. cerevisiae | S. cerevisiae (endogenous in the yeast membranes)) (UniProt P32915). The assay is described as above.

For “proteasome 19S regulatory particle (RP), FLAG-tagged on Rpt1 (from UniProt P33299 1-467) (complex)”, the t1/2 of Δgpαf export and degradation from microsomes in the cell-free ERAD assay with 1 mg/ml cytosol (limiting 19S RP); wildtype kinetics in assay [1] was found to be 20 min. Besides, the t1/2 of Δgpαf export and degradation from microsomes in the cell-free ERAD assay with 1 mg/ml cytosol (limiting 19S RP) in assay [2] came out at 45 min; in assay [3], 45 min; in assay [4], 45 min; in assay [5] it was 20 min. For the same substance, the results for the percent of 19S RP bound in assay [6] and in assay [7] were 20% and 40%, respectively.

Values taken from PMC4319758.
